Results from the supplement of paper PMC9170038.

Tested on: MS2 coat protein
Assay: apparent KD of MS2 coat protein; designed switch direction (-1 OFF switch, 1 ON switch): -1; higher = weaker reporter binding
Method in brief: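 The reported apparent KD is a per-design median over clusters, from curve fits of normalised cluster fluorescence. Protein titrations used SNAP-549-labelled MS2 coat protein, doubled from 0.7 or 1.5 nM to 3 µM, in Tris-HCl pH 7.5 buffer with KCl, MgCl2, BSA, DTT, tRNA and Tween-20, with no input, 200 uM small-molecule ligand, or an oligonucleotide input. The RNA switches were transcribed on Illumina chips by stalled E. coli RNA polymerase.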

[1] = input ligand: microRNA oligo, concentration not stated
[2] = Eterna round: R95, input ligand: microRNA oligo, concentration not stated
[3] = Eterna round: R95, input ligand: FMN 200 uM
[4] = Eterna round: R95, input ligand: none

For “CUGUUCCGUGUAGGAUAUGCAUAUUCUCAUUAUGCAGAAGGACAUGAGGAUCACCCAUGUAUGUUAUUAUCAUGUGUUACAUGU [Design 6] (Eterna round: R96, puzzle: Exclusion NG 1)”, the “apparent KD of MS2 coat protein” value [1] was 22.4 nM.
With “CUGUUUUCCGCAGGAUAUGCUCCUCCAUUACUAGCAGAAGGGCGUUGAACAUGAGGAUCACCCAUGUAUGUAAUUGCUUAUUGC [JR_ExcNG1_Sub072] (Eterna round: R96, puzzle: Exclusion NG 1)” the “apparent KD of MS2 coat protein” value (input ligand: FMN 200 uM) was 19.2 nM, the “apparent KD of MS2 coat protein” value [1] was 14.6 nM and the “apparent KD of MS2 coat protein” value (input ligand: none) was 19.4 nM.
“CUUAAGGCAGGAUAUGCUUUUUGUGACAUGAGGAUCACCCAUGUGAUGCAGUUUGGGUUUGCAGAAGGGCCUGAGU [JR_E5_Sub034] (puzzle: Exclusion 5)” was tested, and the “apparent KD of MS2 coat protein” value [2] was 82.6 nM.
In the case of “CUUAAGUCAGGAUAUCAGGAGCAAGCUUAACGGGCACUCGCUGAGAAGGGACAUGAGGAUCACCCAUGUGCUCG [Eternabot (L2) Solution 17] (Eterna round: R97, puzzle: Exclusion 4)”, the “apparent KD of MS2 coat protein” value (input ligand: FMN 200 uM) is reported as 52.3 nM and the “apparent KD of MS2 coat protein” value (input ligand: none) is reported as 24.7 nM.
In the case of “CUUAAUUGUCAGAUGGGUGACAUGAGGAUCACCCAUGUCACAAGCUUUUUGUUCGUCUUAUAAUUAACCCAUCUGAC [Stov1/11-B3] (Eterna round: R97, puzzle: Sensor, turn-off variant 1)”, the “apparent KD of MS2 coat protein” value (input ligand: FMN 200 uM) is reported as 14.5 nM and the “apparent KD of MS2 coat protein” value (input ligand: none) is reported as 12.3 nM.
In the case of “CUUAGACAUGAGGAUCACCCAUGUGAGGAUAUGAAAUGAAUUAAGUAUGAAGUAUGAAUCAGAAGGCACAUAUG [Mat - Mod of Hyphema D33] (puzzle: Exclusion 1)”, the “apparent KD of MS2 coat protein” value [3] is reported as 63 nM, the “apparent KD of MS2 coat protein” value [2] is reported as 95.8 nM and the “apparent KD of MS2 coat protein” value [4] is reported as 107 nM.
“CUUAGACAUGAGGAUCACCCAUGUGAGGAUAUGAAAUUAAUUAAUUAUUAAUUAUGAAUCAGAAGGCACAUAUG [Mat - Mod of Hyphema D37] (puzzle: Exclusion 1)” was tested, and the “apparent KD of MS2 coat protein” value [3] was 121 nM, the “apparent KD of MS2 coat protein” value [2] was 47.9 nM and the “apparent KD of MS2 coat protein” value [4] was 50.9 nM.
In the case of “CUUAGCCUAAAAUCACGCAAGCUUUUUGCUUGUCUUAAGACAUGAGGAUCACCCAUGUCCGGGCUGAACUUAUGUAA [Laantiusan] (puzzle: Sensor v3, turn-off variant 2)”, the “apparent KD of MS2 coat protein” value [3] is reported as 22.7 nM, the “apparent KD of MS2 coat protein” value [2] is reported as 30.9 nM and the “apparent KD of MS2 coat protein” value [4] is reported as 26.4 nM.
“CUUAUGUGAGGAUAUCAGUAGUAAUACAAUAGUAUUACUACUGAGAAGGCACAUGAGGAUCACCCAUGUUCCUU [Exclusion 4 - Mod Omei Ex4 344 mod v.1] (puzzle: Exclusion 4)” was tested, and the “apparent KD of MS2 coat protein” value [2] was 27.5 nM.
In the case of “CUUAUGUGAGGAUAUGCCUGGCCGUGAGGCCAAAUUGAUAAGCAGAAGGCACAUGAGGAUCACCCAUGUGCGGG [jl-ex4-4.68 ViennaUCT mod] (Eterna round: R97, puzzle: Exclusion 4)”, the “apparent KD of MS2 coat protein” value (input ligand: FMN 200 uM) is reported as 112 nM and the “apparent KD of MS2 coat protein” value (input ligand: none) is reported as 241 nM.
“CUUCAGUCAGGAUAUCAUGAGCUCUGCCGACACGGGCUCGCUGAGAAGGGACAUGAGGAUCACCCAUGUAGACC [EX4 C.20] (Eterna round: R97, puzzle: Exclusion 4)” was tested, and the “apparent KD of MS2 coat protein” value (input ligand: FMN 200 uM) was 132 nM and the “apparent KD of MS2 coat protein” value (input ligand: none) was 34.1 nM.
In the case of “CUUCAUUGUUGAGGAUAUAAUUAUAGGAUGUAGUUAGAAGGCGAACAUGAGGAUCACCCAUGUCAGGCAUGGAGACCCUUGACC [Eternabot solution 8] (Eterna round: R96, puzzle: Exclusion NG 1)”, the “apparent KD of MS2 coat protein” value [1] is reported as 308 nM.
For “CUUCCACGGAUUGUAUUAAACAUGAGGAUCACCCAUGUCCGGGAUUUAAAACAAGCCCUUUGCUCAGUCCUUAUUGC [Eternabot (L1) Solution 10] (Eterna round: R97, puzzle: Sensor, turn-off variant 1)”, the “apparent KD of MS2 coat protein” value (input ligand: FMN 200 uM) was 22.2 nM and the “apparent KD of MS2 coat protein” value (input ligand: none) was 25.9 nM.
For “CUUCGACAUGAGGAUCACCCAUGUCAGGAUAUUGUUUAUCUGGUUUUUUACAGAUAUGCAAGAAGGGAUGUGUU [LRO-Excl1-03] (puzzle: Exclusion 1)”, the “apparent KD of MS2 coat protein” value [2] was 26.5 nM.
In the case of “CUUCUGUGAGGAUAUGUGAACCCGUGCCGAAAGGAUGGGAAACAGAAGGCACAUGAGGAUCACCCAUGUAAAAU [Isergeat] (puzzle: Exclusion 4)”, the “apparent KD of MS2 coat protein” value [2] is reported as 29.1 nM.
For “CUUGAAUAAGUGAGGAUAUACUGUUAGUAAUGAUUGUAGAAGGUACAUGAGGAUCACCCAUGUUUAUUCUUUAU [JR_BME4_Sub040] (puzzle: Brourd's mod of Exclusion 4)”, the “apparent KD of MS2 coat protein” value [2] was 14.5 nM.
In the case of “CUUGCAUUGCGAGGAUAUCCAACGUGGCUCGUGCUUACAUGAGGAUCACCCAUGUUCUACUAAAAGGAGAAGGCGCUUGGAGGA [Endixexebe] (Eterna round: R96, puzzle: Exclusion NG 2)”, the “apparent KD of MS2 coat protein” value (input ligand: FMN 200 uM) is reported as 48.8 nM, the “apparent KD of MS2 coat protein” value [1] is reported as 16.8 nM and the “apparent KD of MS2 coat protein” value (input ligand: none) is reported as 25.5 nM.
With “CUUGGAGAGGUAGGAUAUUUAUAUUCACACUCUGAUUCUUGUACACAUGAGGAUCACCCAUGUAUAGAGAAGGACUGCCAAGAG [Eternabot solution 48] (Eterna round: R96, puzzle: Exclusion NG 2)” the “apparent KD of MS2 coat protein” value (input ligand: FMN 200 uM) was 21.6 nM, the “apparent KD of MS2 coat protein” value [1] was 17.2 nM and the “apparent KD of MS2 coat protein” value (input ligand: none) was 21.3 nM.
In the case of “CUUUACAAGCUAAGAUCCUACAUGAGGAUCACCCAUGUGGUCCGGUGACGUGAGUCACCGGACUUAGCUCGUCUUGU [salish99_S_TOV1_R5_096] (Eterna round: R97, puzzle: Sensor, turn-off variant 1)”, the “apparent KD of MS2 coat protein” value (input ligand: FMN 200 uM) is reported as 41.5 nM and the “apparent KD of MS2 coat protein” value (input ligand: none) is reported as 42.6 nM.
In the case of “CUUUACAUGCUGAGAUCCUACAUGAGGAUCACCCAUGUGGUCCGGUGACGUGAGUCACCGGACUUAGCUCGUCUUGU [salish99_S_TOV1_R5_098] (Eterna round: R97, puzzle: Sensor, turn-off variant 1)”, the “apparent KD of MS2 coat protein” value (input ligand: FMN 200 uM) is reported as 169 nM and the “apparent KD of MS2 coat protein” value (input ligand: none) is reported as 336 nM.
In the case of “CUUUAGUGAGGAUAUCAGUAGUAAUACAAUAGUAUUACUGCUGAGAAGGCACAUGAGGAUCACCCAUGUUCCUC [Mat - Exclusion 4 - Mod of Omei - D83] (puzzle: Exclusion 4)”, the “apparent KD of MS2 coat protein” value [2] is reported as 33.1 nM.
For “CUUUGAUGAGGAUAUCGAGGUUAGUACAUGAGGAUCACCCAUGUUAUCCAGGUGUCGGAUCGAGAAGGUAUUGGAC [LRO-Ex5-18] (puzzle: Exclusion 5)”, the “apparent KD of MS2 coat protein” value [2] was 14.8 nM.
“CUUUGCACGCUGCGGUCCUACAUGAGGAUCACCCAUGUGGUCUGGUGGCGUGGGUCGCCGGACUUGGCUCGUCUUGA [salish99_S_TOV1_R5_040] (Eterna round: R97, puzzle: Sensor, turn-off variant 1)” was tested, and the “apparent KD of MS2 coat protein” value (input ligand: FMN 200 uM) was 18.5 nM and the “apparent KD of MS2 coat protein” value (input ligand: none) was 18.4 nM.
With “CUUUGGGCAGGAUAUGCUGUUUGUGACAUGAGGAUCACCCAUGUGAUGCAGUUUGGGUGUGCAGAAGGGCCUGAGA [JR_E5_Sub030] (puzzle: Exclusion 5)” the “apparent KD of MS2 coat protein” value [3] was 115 nM, the “apparent KD of MS2 coat protein” value [2] was 72.6 nM and the “apparent KD of MS2 coat protein” value [4] was 110 nM.
For “CUUUUAAAUGUGAGGAUAUACUGUUAUUAAAGUUAGUAGAAGGUACAUGAGGAUCACCCAUGUUAAUUACUCUA [JR_BME4_Sub048] (puzzle: Brourd's mod of Exclusion 4)”, the “apparent KD of MS2 coat protein” value [3] was 15.1 nM, the “apparent KD of MS2 coat protein” value [2] was 12.5 nM and the “apparent KD of MS2 coat protein” value [4] was 12.6 nM.
For “CUUUUGCAACAAGCCAAUAACAUGAGGAUCACCCAUGUCCUGUUGAGGUCUUCCGUCGUUCUUGCUCACGUCUUACG [Eternabot (L1) Solution 50] (Eterna round: R97, puzzle: Sensor, turn-off variant 1)”, the “apparent KD of MS2 coat protein” value (input ligand: FMN 200 uM) was 54.8 nM and the “apparent KD of MS2 coat protein” value (input ligand: none) was 56.3 nM.
For “CUUUUGUGAGGAUAUCAGUAGUAAAUAAAUAAAAUAACUACUGAGAAGGCACAUGAGGAUCACCCAUGUUCCUC [Mat - Exclusion 4 - Mod of Salish - D69] (puzzle: Exclusion 4)”, the “apparent KD of MS2 coat protein” value [2] was 38.6 nM.
“CUUUUGUGAGGAUAUCAGUAGUAAUACAAUAGUAUUACUGCUGAGAAGGCACAUGAGGAUCACCCAUGUUCCUC [Ex4 344 Omei mod 10] (puzzle: Exclusion 4)” was tested, and the “apparent KD of MS2 coat protein” value [2] was 53.6 nM.
With “CUUUUGUGAGGAUAUCAGUAGUAAUUAAAUAAAAUUACUACUGAGAAGGCACAUGAGGAUCACCCAUGUUCCUC [salish99_ex3_r3_077] (puzzle: Exclusion 4)” the “apparent KD of MS2 coat protein” value [2] was 39.5 nM.
“CUUUUGUGAGGAUAUCAGUAGUAGAACAAUAGUACUACUACUGAGAAGGCACAUGAGGAUCACCCAUGUUCCUC [Fiskers Ex 4 Super stable 44 mod 2] (puzzle: Exclusion 4)” was tested, and the “apparent KD of MS2 coat protein” value [2] was 52.3 nM.
“CUUUUGUGAGGAUAUCAGUAGUAGAACAAUAGUACUACUACUGAGAAGGCACAUGAGGAUCACCCAUGUUCCUU [Fiskers Ex 4 Super stable 44 mod 6] (puzzle: Exclusion 4)” was tested, and the “apparent KD of MS2 coat protein” value [2] was 15.4 nM.
In the case of “CUUUUGUGAGGAUAUCAGUAGUUAAAUAAUAAAAUUACUACUGAGAAGGCACAUGAGGAUCACCCAUGUUCCUC [Mat - Exclusion 4 - Mod of Salish - D70] (Eterna round: R96, puzzle: Exclusion 4)”, the “apparent KD of MS2 coat protein” value (input ligand: FMN 200 uM) is reported as 274 nM, the “apparent KD of MS2 coat protein” value [1] is reported as 35.1 nM and the “apparent KD of MS2 coat protein” value (input ligand: none) is reported as 40 nM.
“CUUUUGUGAGGAUAUCAGUAGUUAAAUAAUAAAAUUACUACUGAGAAGGCACAUGAGGAUCACCCAUGUUCCUC [Mat - Exclusion 4 - Mod of Salish - D70] (puzzle: Exclusion 4)” was tested, and the “apparent KD of MS2 coat protein” value [2] was 35.5 nM.
“CUUUUGUGAGGAUAUCAGUUGUAAAAAAAUAAAAUUACUACUGAGAAGGCACAUGAGGAUCACCCAUGUUCCUC [salish99_ex4_r3_033] (puzzle: Exclusion 4)” was tested, and the “apparent KD of MS2 coat protein” value [2] was 33.2 nM.
For “CUUUUGUGAGGAUAUUAGUAGUAAAUAAAUAAAAUUACUACUGAGAAGGCACAUGAGGAUCACCCAUGUUUCUC [salish99_ex4_r3_065] (Eterna round: R96, puzzle: Exclusion 4)”, the “apparent KD of MS2 coat protein” value (input ligand: FMN 200 uM) was 278 nM, the “apparent KD of MS2 coat protein” value [1] was 31.2 nM and the “apparent KD of MS2 coat protein” value (input ligand: none) was 35.5 nM.
In the case of “CUUUUGUGAGGAUAUUAGUAGUAAAUAAAUAAAAUUACUACUGAGAAGGCACAUGAGGAUCACCCAUGUUUCUC [salish99_ex4_r3_065] (puzzle: Exclusion 4)”, the “apparent KD of MS2 coat protein” value [2] is reported as 31.9 nM.
